Square brackets hold non-standard residues; d marks the D form. Ends that are not written are not given here. hArg = N=C(N)NCCCC[C@H](N)C(=O)O; Nle = CCCC[C@H](N)C(=O)O; Aib = CC(C)(N)C(=O)O
Key:
[1] = target: T1, truncated human P1R deleted for residues (24-181) (hP1R-delNt) (human, UniProt Q03431 182-593); assay: competition binding, COS-7 cells expressing P1R-delNt
T1 construct: whole, on cells; also called delNT receptor
T1 sequence (looked up): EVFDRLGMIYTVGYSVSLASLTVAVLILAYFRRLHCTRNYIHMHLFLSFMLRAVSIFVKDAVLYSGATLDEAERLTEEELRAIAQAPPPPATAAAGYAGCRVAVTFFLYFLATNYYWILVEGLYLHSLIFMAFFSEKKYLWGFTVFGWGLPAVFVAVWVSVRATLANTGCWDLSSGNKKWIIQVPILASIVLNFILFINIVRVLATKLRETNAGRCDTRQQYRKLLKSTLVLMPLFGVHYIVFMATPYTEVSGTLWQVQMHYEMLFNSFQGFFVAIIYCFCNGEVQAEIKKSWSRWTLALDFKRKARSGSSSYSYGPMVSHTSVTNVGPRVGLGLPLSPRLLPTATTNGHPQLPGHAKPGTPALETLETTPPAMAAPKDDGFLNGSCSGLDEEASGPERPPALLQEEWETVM
Protocol: These cells, as well as COS-7 cells and SaOS-2-B10 cells, were cultured at […] in T-75 flasks ([…]) in Dulbecco's modified Eagle's medium (DMEM) supplemented with fetal bovine serum (10%), penicillin G (20 units/ml), streptomycin sulfate (20 μg/ml) and amphotericin B (0.05 μg/ml) in a humidified atmosphere containing 5% CO₂. Stock solutions of EGTA/trypsin and antibiotics were from GIBCO; fetal bovine serum was from Hyclone Laboratories (Logan, Utah). […] All cells, in 24-well plates, were treated with fresh media and shifted to 33° C. for 12 to 24 h prior to assay.
Competition Binding. Binding reactions were performed with HKRK-B28 cells or in COS-7 cells in 24-well plates. […] The cells were subsequently lysed with 0.5 mL […] and counted for radioactivity. For each tracer and in each experiment, the non-specific binding was determined as the radioactivity that bound in the presence of the same unlabeled peptide at a concentration of 1 μM, and was ˜1% of total radioactivity added for each tracer. The maximum specific binding (B₀) was the total radioactivity bound in the absence of competing ligand, corrected for nonspecific binding, and for each tracer, ranged from 8% to 20% of the total radioactivity added. […]

[2] = target: T2, wild-type human PTH/PTHrP receptor (hP1R-WT) (human, UniProt Q03431 27-593); assay: competition binding, 125I-[Aib1,3,M]PTH(1-21) tracer, COS-7 cells expressing hP1R-WT
T2 construct: whole, on cells; HKRK-B28 cells express ~280,000 receptors per cell; also called PTH-1 receptor; PTH-1R
T2 sequence (looked up): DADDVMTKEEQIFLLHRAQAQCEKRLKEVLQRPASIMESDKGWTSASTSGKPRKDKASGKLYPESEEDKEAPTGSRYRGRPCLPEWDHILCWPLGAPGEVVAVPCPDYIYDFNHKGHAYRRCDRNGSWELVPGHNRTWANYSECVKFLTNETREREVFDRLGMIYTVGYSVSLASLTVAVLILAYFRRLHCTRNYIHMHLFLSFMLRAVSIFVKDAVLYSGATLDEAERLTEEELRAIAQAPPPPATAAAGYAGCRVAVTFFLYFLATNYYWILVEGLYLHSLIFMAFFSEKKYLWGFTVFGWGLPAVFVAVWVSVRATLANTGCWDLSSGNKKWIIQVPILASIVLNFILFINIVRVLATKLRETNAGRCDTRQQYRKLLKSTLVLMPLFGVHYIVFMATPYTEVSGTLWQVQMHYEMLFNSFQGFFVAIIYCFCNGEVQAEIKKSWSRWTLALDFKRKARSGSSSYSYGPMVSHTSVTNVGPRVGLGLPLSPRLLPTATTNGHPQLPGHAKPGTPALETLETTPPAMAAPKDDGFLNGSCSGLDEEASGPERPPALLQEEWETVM
Protocol: Competition Binding. Binding reactions were performed with HKRK-B28 cells or in COS-7 cells in 24-well plates. The cells were rinsed with 0.5 mL of binding buffer, and then treated successively with 100 μL binding buffer, 100 μL of binding buffer containing various amounts of unlabeled competitor ligand, and 100 μL of binding buffer containing ca. 100,000 cpm of ¹²⁵I-[M]PTH(1-21) or ¹²⁵I-[Aib^{1,3},M]PTH(1-21)} (ca. 26 fmol; final volume=300 μL). Incubations were 4 to 6 h at 4° C., at which time near equilibrium conditions were attained. Cells were then placed on ice, the binding medium was removed, and the monolayer was rinsed three times with 0.5 mL of cold binding buffer. The cells were subsequently lysed with 0.5 mL […] NaOH and counted for radioactivity. For each tracer and in each experiment, the non-specific binding was determined as the radioactivity that bound in the presence of the same unlabeled peptide at a concentration of 1 μM, and was ˜1% of total radioactivity added for each tracer. The maximum specific binding (B₀) was the total radioactivity bound in the absence of competing ligand, corrected for nonspecific binding, and for each tracer, ranged from 8% to 20% of the total radioactivity added. Nonlinear regression was used to calculate binding IC₅₀ values (see below). Scatchard transformations of homologous competition binding data derived from studies with 26 fmol of ¹²⁵I-[Aib^{1,3},M]PTH(1-21) were employed for estimations of apparent equilibrium dissociation constant (kDapps) and total number of ligand binding sites (Bₘₐₓ), assuming a single class of binding sites and equal affinities of the iodinated and non iodinated ligand.

B1: [Aib^1,3,M]PTH(1-21) (peptide)
peptide: [Aib]V[Aib]EIQL[Nle]HQ[hArg]AKWLASVRRY-NH2
modifications: N-terminus assumed
SMILES: CCCC[C@H](NC(=O)[C@H](CC(C)C)NC(=O)[C@H](CCC(N)=O)NC(=O)[C@@H](NC(=O)[C@H](CCC(=O)O)NC(=O)C(C)(C)NC(=O)[C@@H](NC(=O)C(C)(C)N)C(C)C)[C@@H](C)CC)C(=O)N[C@@H](Cc1c[nH]cn1)C(=O)N[C@@H](CCC(N)=O)C(=O)N[C@@H](CCCCNC(=N)N)C(=O)N[C@@H](C)C(=O)N[C@@H](CCCCN)C(=O)N[C@@H](Cc1c[nH]c2ccccc12)C(=O)N[C@@H](CC(C)C)C(=O)N[C@@H](C)C(=O)N[C@@H](CO)C(=O)N[C@H](C(=O)N[C@@H](CCCNC(=N)N)C(=O)N[C@@H](CCCNC(=N)N)C(=O)N[C@@H](Cc1ccc(O)cc1)C(N)=O)C(C)C
notes: unlabeled peptide; also called 674 [Aib^1,3, M]PTH (1-21); 674 [Aib^1,3M]PTH(1-21)
[1]
  fold difference in affinity against [Aib^1,3,M]PTH(1-14): 50 fold
[2]
  IC50: 28 nM

B2: [Aib^1,3,M]PTH(1-14) (peptide)
peptide: [Aib]V[Aib]EIQLMHQ[hArg]AKW-NH2
modifications: N-terminus assumed
SMILES: CC[C@H](C)[C@H](NC(=O)[C@H](CCC(=O)O)NC(=O)C(C)(C)NC(=O)[C@@H](NC(=O)C(C)(C)N)C(C)C)C(=O)N[C@@H](CCC(N)=O)C(=O)N[C@@H](CC(C)C)C(=O)N[C@@H](CCSC)C(=O)N[C@@H](Cc1c[nH]cn1)C(=O)N[C@@H](CCC(N)=O)C(=O)N[C@@H](CCCCNC(=N)N)C(=O)N[C@@H](C)C(=O)N[C@@H](CCCCN)C(=O)N[C@@H](Cc1c[nH]c2ccccc12)C(N)=O
notes: also called 671 [Aib^1,3, M]PTH (1-14); 671 [Aib^1,3M]PTH(1-14)
[1]
  fold stronger binding affinity than [M]PTH(1-14): ~10 fold
[2]
  IC50: 2250 nM

Reference: patent publication US20050026839A1 (GENERAL HOSPITAL, published 2005)
